Publication PMC7810871

Biological target: EsxE-EsxF heterodimer (Mycobacterium tuberculosis) (UniProt P9WNH8)
Assay: negative-stain electron microscopy

## EsxE-EsxF heterodimer (from UniProt P9WNH8 1-90; P9WNH6 1-103) (complex)
  stoichiometry N: 5
